Results reported in US20060069024A1 (PURDUE RESEARCH FOUNDATION, published 2006).

What was measured:
STE7-Myc fusion protein = target: T1, STE7-Myc fusion protein (Saccharomyces cerevisiae, UniProt P06784 1-515, limits assumed); test: pull-down with osmotin-Sepharose 4B, anti-myc (myc1-9E10) immunoblot
T1 construct: Used as a cell extract of BWG7a expressing the fusion, as a control for the c-myc tag; also called c-myc tagged STE7; pNC267 product; not shown: Myc tag
T1 sequence (looked up): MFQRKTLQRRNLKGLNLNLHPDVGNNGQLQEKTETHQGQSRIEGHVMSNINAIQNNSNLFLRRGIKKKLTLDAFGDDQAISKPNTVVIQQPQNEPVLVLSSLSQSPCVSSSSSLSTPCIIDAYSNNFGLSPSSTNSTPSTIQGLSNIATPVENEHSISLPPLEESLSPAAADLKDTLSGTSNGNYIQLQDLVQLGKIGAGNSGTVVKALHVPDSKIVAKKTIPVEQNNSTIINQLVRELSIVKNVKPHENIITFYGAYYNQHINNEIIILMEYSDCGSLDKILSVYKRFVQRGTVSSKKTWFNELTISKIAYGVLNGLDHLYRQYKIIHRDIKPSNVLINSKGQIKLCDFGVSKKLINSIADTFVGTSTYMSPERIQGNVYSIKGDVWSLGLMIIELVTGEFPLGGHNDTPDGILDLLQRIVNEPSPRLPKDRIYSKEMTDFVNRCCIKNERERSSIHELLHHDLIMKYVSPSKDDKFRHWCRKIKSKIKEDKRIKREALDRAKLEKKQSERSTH
Procedure: FIG. 4: PHO36 Interacts Specifically with Osmotin In Vitro and In Vivo. A. Osmotin-Sepharose 4B was incubated with cell extract of the strain BWG7a expressing the fusion protein STE7-Myc (lane 1), total membrane fraction purified from the strain ΔPHO36 (lane 2) or total membrane fraction purified from the strain BWG7a expressing c-myc tagged PHO36 from the plasmid pPHO36MH (lanes 3-8) in the absence (lanes 1, 2, and 5) or presence of the competitor proteins A9 (100 μg, lane 3; or 10 μg, lane 7), osmotin (Osm; 100 μg, lane 4; or 10 μg, lane 6), or BSA (100 μg, lane 8). After extensive washing, bound proteins were dissociated, separated by SDS-PAGE and the c-Myc tag was immunodetected with mycl-9E10 antibodies. B. Spheroplasts (10⁹ml⁻¹) derived from the Δpho36 mutant (Δpho36), and the wild-type strain BWG7a carrying the plasmid pPHO36MH (pPHO36) were incubated with ³⁵S-osmotin (0.4 μM, 0.16 μCi) for 1 hr, without (none) or with a 10-fold molar excess of A9, BSA, or osmotin as competitors. After extensive washing, ³⁵S-osmotin retained on spheroplasts was counted.
Protein interaction assays in solution. Osmotin was coupled to CNBr-activated Sepharose 4B (Pharmacia Biotech) according to the manufacturer's instructions. […]

[1] = target: T2, PHO36MH (PHO36 with c-myc epitope and hexa-His tag fused in-frame at the C-terminus) (Saccharomyces cerevisiae, UniProt Q12442 1-317); test: 35S-osmotin binding to yeast spheroplasts, scintillation counting, non-specific binding subtracted
T2 construct: whole, on cells; Overexpressed in BWG7a from the multicopy plasmid pPHO36MH; It was used as a detergent-solubilised total membrane fraction in the pull-down and on spheroplasts in the 35S-osmotin assay; Bands of about 36 and 72 kDa were read as monomers and dimers; also called c-myc tagged PHO36; recombinant PHO36MH; not shown: c-myc tag; hexa-His tag
T2 sequence (looked up): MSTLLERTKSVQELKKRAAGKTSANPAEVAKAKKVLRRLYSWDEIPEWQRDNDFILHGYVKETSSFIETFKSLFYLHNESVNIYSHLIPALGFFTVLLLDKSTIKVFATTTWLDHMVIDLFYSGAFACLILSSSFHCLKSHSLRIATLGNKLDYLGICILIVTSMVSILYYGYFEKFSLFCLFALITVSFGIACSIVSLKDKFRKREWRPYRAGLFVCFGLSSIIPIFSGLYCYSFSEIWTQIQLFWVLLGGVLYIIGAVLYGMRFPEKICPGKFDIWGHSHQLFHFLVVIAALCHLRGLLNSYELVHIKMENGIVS
Procedure: After extensive washing, bound proteins were dissociated, separated by SDS-PAGE and the c-Myc tag was immunodetected with mycl-9E10 antibodies. B. Spheroplasts (10⁹ml⁻¹) derived from the Δpho36 mutant (Δpho36), and the wild-type strain BWG7a carrying the plasmid pPHO36MH (pPHO36) were incubated with ³⁵S-osmotin (0.4 μM, 0.16 μCi) for 1 hr, without (none) or with a 10-fold molar excess of A9, BSA, or osmotin as competitors. After extensive washing, ³⁵S-osmotin retained on spheroplasts was counted.
³⁵S-Osmotin Binding Assay. Osmotin was radiolabeled to a specific-activity of 12 Ci mmol⁻¹ using the ³⁵SLR reagent (Amersham), according to manufacturer's instructions. Yeast cells were grown YPD medium until A₆₀₀ₙₘ 0.6 and then harvested by centrifugation. The pellet was resuspended in 1M sorbitol (A₆₀₀ₙₘ 6) and treated with lyticase (100 U ml⁻¹). After digestion of the cell wall was completed, spheroplasts were collected by centrifugation, washed twice with 1M sorbitol and resuspended in 1M sorbitol (10⁹ml⁻¹). The binding reaction was initiated by the addition of 2 μl of 35S-osmotin (1 μCi, 3 μg) to 300 μl of spheroplasts (0.3×10⁹). […] Spheroplasts were collected by centrifugation, washed twice, resuspended 1M sorbitol (50 μl) and counted in a liquid scintillation counter in 5 ml of EcoLume™ (ICN Biomedicals). […]

[2] = target: T3, PHO36 (endogenous, wild-type strain BWG7a) (Saccharomyces cerevisiae, UniProt Q12442 1-317); test: cell-based or functional assay
T3 sequence (looked up): T2 sequence (looked up)

[3] = target: T4, PHO36t (product of the truncated PHO36 cDNA isolated in the screen) (Saccharomyces cerevisiae, UniProt Q12442 116-317, limits assumed); test: cell-based or functional assay
T4 sequence (looked up): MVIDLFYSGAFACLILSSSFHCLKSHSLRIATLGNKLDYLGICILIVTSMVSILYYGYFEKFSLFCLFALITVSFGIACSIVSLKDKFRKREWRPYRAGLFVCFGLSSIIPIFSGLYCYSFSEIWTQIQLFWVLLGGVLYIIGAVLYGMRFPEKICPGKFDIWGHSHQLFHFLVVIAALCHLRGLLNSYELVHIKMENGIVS

B1: osmotin (ligand)
chain: ATIEVRNNCPYTVWAASTPIGGGRRLDRGQTWVINAPRGTKMARVWGRTNCNFNAAGRGTCQTGDCGGVLQCTGWGKPPNTLAEYALDQFSGLDFWDISLVDGFNIPMTFAPTNPSGGKCHAIHCTANINGECPRELRVPGGCNNPCTTFGGQQYCCTQGPCGPTFFSKFFKQRCPDAYSYPQDDPTSTFTCPGGSTNYRVIFCPNGQAHPNFPLEMPGSDEVAK
notes: Purified osmotin (26 kDa globular protein, mostly a monomer in solution); also called tobacco PR-5 protein; 35S-osmotin
- binding result (STE7-Myc fusion protein): no binding
- fold 35S-osmotin bound, spheroplasts of the PHO36MH-overexpressing strain against the wild-type strain with empty vector [1]: ~3 times
- IC50 for osmotin of control cells transformed with the empty vector (viable counts after one hour of osmotin treatment, galactose medium) [2]: 0.6 µM
- IC50 for osmotin of the wild type strain (compared with the PHO36 disruptant) [2]: 0.6 µM
- IC50 for osmotin of cells overexpressing PHO36t (viable counts after one hour of osmotin treatment, galactose medium) [3]: 0.2 µM
- fold change of IC50 for osmotin, cells overexpressing PHO36t against control cells with the empty vector [3]: 3 fold
